One may read the stoichiometry N as the number of molecules, sites or subunits per partner or assembly.

Several values for one entry are separate records, joined by “and”; a condition that tells them apart may be missing. Identical values can stand only once.

The source of these data is PMC4449314.

Assay [1] deals with HA-tagged human DAP12 (full length, both native cysteines), in 293T cells (human), O43914. As to the kind of experiment: non-reducing SDS-PAGE of disulfide-linked products after anti-HA IP. The note with it: remark: other sources report otherwise.
For assay [2], the target named is HA-tagged human DAP12 wild type, in vitro translated with ER microsomes (human), O43914. The description is as above. Conditions: remark: other sources report otherwise.

B1: HA-tagged human DAP12 (full length, both native cysteines), in 293T cells, O43914 22-113 (natural protein)
chain: LRPVQAQAQSDCSCSTVSPGVLAGIVMGDLVLTVLIALAVYFLGRLVPRGRGAAEAATRKQRITETESPYQELQGQRSDVYSDLNTQRPYYK
As to B1, the stoichiometry N in assay [1] is 2 and 3 and 4.

B2: HA-tagged human DAP12 wild type, in vitro translated with ER microsomes, O43914 22-113 (natural protein)
chain: LRPVQAQAQSDCSCSTVSPGVLAGIVMGDLVLTVLIALAVYFLGRLVPRGRGAAEAATRKQRITETESPYQELQGQRSDVYSDLNTQRPYYK
modifications: here or on the partner: 35S-methionine/cysteine labelled; 35S-methionine/cysteine labelled
B2: the stoichiometry N in assay [2] was 3 and 4.
